Laboratory results taken from patent US20040018971A1 (published 2004).

B1: Her2/neu.642 (peptide)
peptide: CPAEQRASPL
notes: native HER2/neu peptide from position 642
B2: Her2/neu.336 (peptide)
peptide: KPCARVCYGL
notes: native HER2/neu peptide from position 336

Target: HLA-B*0702 (human)
Assay: competition with 125I-labelled probe peptide for purified HLA, gel filtration

Binder	relative binding ratio
LPREYVNA [HER2/neu peptide, position 550, 8 amino acids]	0.0012 ratio (IC50 of standard / IC50 of test peptide)
LPSETDGYVA [HER2/neu peptide, position 1120, 10 amino acids]	0.0001 ratio (IC50 of standard / IC50 of test peptide)
LPTDCCHEQCA [HER2/neu peptide, position 231, 11 amino acids]	< 0.0003 ratio (IC50 of standard / IC50 of test peptide)
MPNPEGRY [HER2/neu peptide, position 282, 8 amino acids]	< 0.0006 ratio (IC50 of standard / IC50 of test peptide)
LPTNASLSFL (also called Her2/neu.65) [HER2/neu peptide, position 65, 10 amino acids]	0.019 ratio (IC50 of standard / IC50 of test peptide)
LPPGAASTQV [HER2/neu peptide, position 16, 10 amino acids]	0.0002 ratio (IC50 of standard / IC50 of test peptide)
LPTHDPSPL [HER2/neu peptide, position 1101, 9 amino acids]	0.046 ratio (IC50 of standard / IC50 of test peptide)
LPSETDGYV [HER2/neu peptide, position 1120, 9 amino acids]	0.0002 ratio (IC50 of standard / IC50 of test peptide)
LPSETDGY [HER2/neu peptide, position 1120, 8 amino acids]	< 0.0006 ratio (IC50 of standard / IC50 of test peptide)

Target: T1, HLA-A*0101 (human)
T1 construct: also called HLA-A1
Assay: competition with 125I-labelled probe peptide for purified HLA-A*0101, gel filtration; relative to standard peptide

Binder	relative binding ratio (IC50 of standard peptide / IC50 of test peptide)
LQDIQEVQGY [HER2/neu peptide, position 74, 10 amino acids]	0.0015 relative binding ratio
QIAKGMSY [HER2/neu peptide, position 828, 8 amino acids]	-0.0021 relative binding ratio
AFSPAFDNLY [HER2/neu peptide, position 1212, 10 amino acids]	0.001 relative binding ratio
AFSPAFDNLYY [HER2/neu peptide, position 1212, 11 amino acids]	0.014 relative binding ratio
LGSGAFGTVY [HER2/neu peptide, position 726, 10 amino acids]	0.001 relative binding ratio
PTAENPEY [HER2/neu peptide, position 1241, 8 amino acids]	0.003 relative binding ratio
SGAFGTVY [HER2/neu peptide, position 728, 8 amino acids]	-0.0021 relative binding ratio
EADQCVACAHY (also called Her2/neu.580) [HER2/neu peptide, position 580, 11 amino acids]	0.1 relative binding ratio
CSKPCARVCY [HER2/neu peptide, position 334, 10 amino acids]	0.0016 relative binding ratio
DMGDLVDAEEY [HER2/neu peptide, position 1013, 11 amino acids]	0.0027 relative binding ratio
LEEITGYLY [HER2/neu peptide, position 403, 9 amino acids]	0.0057 relative binding ratio
PTHDPSPLQRY (H is used here) [HER2/neu peptide, position 1102, 11 amino acids]	0.016 relative binding ratio
NKEILDEAY [HER2/neu peptide, position 764, 9 amino acids]	0.0017 relative binding ratio
GSGAFGTVY [HER2/neu peptide, position 727, 9 amino acids]	0.0011 relative binding ratio
FGASCVTACPY [HER2/neu peptide, position 291, 11 amino acids]	0.01 relative binding ratio
KCSKPCARVCY [HER2/neu peptide, position 333, 11 amino acids]	-0.0017 relative binding ratio
SMPNPEGRY [HER2/neu peptide, position 281, 9 amino acids]	0.0028 relative binding ratio
FSPAFDNLY [HER2/neu peptide, position 1213, 9 amino acids]	0.043 relative binding ratio
LMTFGAKPY [HER2/neu peptide, position 915, 9 amino acids]	0.0011 relative binding ratio
HQSDVWSY [HER2/neu peptide, position 901, 8 amino acids]	-0.0021 relative binding ratio
ETHLDMLRHLY (also called Her2/neu.40) [HER2/neu peptide, position 40, 11 amino acids]	0.28 relative binding ratio
ETLEEITGY [HER2/neu peptide, position 401, 9 amino acids]	0.043 relative binding ratio
MTFGAKPY [HER2/neu peptide, position 916, 8 amino acids]	-0.0021 relative binding ratio
ASPLDSTFY [HER2/neu peptide, position 997, 9 amino acids]	0.029 relative binding ratio
GASCVTACPY [HER2/neu peptide, position 292, 10 amino acids]	0.0012 relative binding ratio
ASCVTACPY (also called Her2/neu.293) [HER2/neu peptide, position 293, 9 amino acids]	0.055 relative binding ratio
PSGVKPDLSY [HER2/neu peptide, position 601, 10 amino acids]	0.001 relative binding ratio
MGDLVDAEEY [HER2/neu peptide, position 1014, 10 amino acids]	0.012 relative binding ratio

Target: HLA-B*0702 (human)
Assay: competition with 125I probe peptide, purified HLA

Binder	IC50
B1	37 nM
SPGGLRELQL [Her2/neu.133 (10-mer)]	95 nM
SPGGLREL [Her2/neu.133 (8-mer)]	100 nM
B2	149 nM

Target: T2, HLA-DR3 (DRB1*0301) (human)
T2 construct: purified HLA class II molecule
Assay: competition binding assay, purified HLA, 125I-labelled probe peptide, gel filtration

Binder	relative binding ratio
MRRLLQETELVEPLT (also called Her2/neu.687) [HER2/neu peptide MRRLLQETELVEPLT (position 687)]	-0.0027 ratio to standard peptide
VHTVPWDQLFRNPHQ (also called Her2/neu.477) [HER2/neu peptide VHTVPWDQLFRNPHQ (position 477)]	0.022 ratio to standard peptide
IWKFPDEEGACQPCP (also called Her2/neu.613) [HER2/neu peptide IWKFPDEEGACQPCP (position 613)]	-0.0027 ratio to standard peptide
DLTLGLEPSEEEAPR (also called Her2/neu.1058) [HER2/neu peptide DLTLGLEPSEEEAPR (position 1058)]	-0.0025 ratio to standard peptide
LVTYNTDTFESMPNP (also called Her2/neu.271) [HER2/neu peptide LVTYNTDTFESMPNP (position 271)]	-0.0027 ratio to standard peptide
DTILWKDIFHKNNQL (also called Her2/neu.165) [HER2/neu peptide DTILWKDIFHKNNQL (position 165)]	-0.0027 ratio to standard peptide
SLAFLPESFDGDPAS (also called Her2/neu.373) [HER2/neu peptide SLAFLPESFDGDPAS (position 373)]	-0.0027 ratio to standard peptide
VTCFGPEADQCVACA (also called Her2/neu.574) [HER2/neu peptide VTCFGPEADQCVACA (position 574)]	-0.0027 ratio to standard peptide
GDLVDAEEYLVPQQG (also called Her2/neu.1015) [HER2/neu peptide GDLVDAEEYLVPQQG (position 1015)]	0.025 ratio to standard peptide
ETEYHADGGKVPIKW (also called Her2/neu.874) [HER2/neu peptide ETEYHADGGKVPIKW (position 874)]	-0.0027 ratio to standard peptide
SDVFDGDLGMGAAKG (also called Her2/neu.1083) [HER2/neu peptide SDVFDGDLGMGAAKG (position 1083)]	-0.0025 ratio to standard peptide
DNLYYWDQDPPERGA (also called Her2/neu.1218) [HER2/neu peptide DNLYYWDQDPPERGA (position 1218)]	-0.0025 ratio to standard peptide
YNYLSTDVGSCTLVC (also called Her2/neu.301) [HER2/neu peptide YNYLSTDVGSCTLVC (position 301)]	0.0059 ratio to standard peptide
NKEILDEAYVMAGVG (also called Her2/neu.764) [HER2/neu peptide NKEILDEAYVMAGVG (position 764)]	0.0047 ratio to standard peptide
SLSFLQDIQEVQGYV (also called Her2/neu.70) [HER2/neu peptide SLSFLQDIQEVQGYV (position 70)]	0.052 ratio to standard peptide
KNGVVKDVFAFGGAV (also called Her2/neu.1177) [HER2/neu peptide KNGVVKDVFAFGGAV (position 1177)]	-0.0025 ratio to standard peptide
TAPLQPEQLQVFETL (also called Her2/neu.389) [HER2/neu peptide TAPLQPEQLQVFETL (position 389)]	0.0023 ratio to standard peptide
AIKVLRENTSPKANK (also called Her2/neu.751) [HER2/neu peptide AIKVLRENTSPKANK (position 751)]	0.0075 ratio to standard peptide
PSGVKPDLSYMPIWK (also called Her2/neu.601) [HER2/neu peptide PSGVKPDLSYMPIWK (position 601)]	-0.0027 ratio to standard peptide
KGPLPTDCCHEQCAA (also called Her2/neu.228) [HER2/neu peptide KGPLPTDCCHEQCAA (position 228)]	-0.0027 ratio to standard peptide
NQEVTAEDGTQRCEK (also called Her2/neu.319) [HER2/neu peptide NQEVTAEDGTQRCEK (position 319)]	-0.0027 ratio to standard peptide
RSLLEDDDMGDLVDA (also called Her2/neu.1006) [HER2/neu peptide RSLLEDDDMGDLVDA (position 1006)]	0.008 ratio to standard peptide
YRSLLEDDDMGDLVD (also called Her2/neu.1005) [HER2/neu peptide YRSLLEDDDMGDLVD (position 1005)]	0.063 ratio to standard peptide
FVVIQNEDLGPASPL (also called Her2/neu.986) [HER2/neu peptide FVVIQNEDLGPASPL (position 986)]	-0.0025 ratio to standard peptide
TVPLPSETDGYVAPL (also called Her2/neu.1117) [HER2/neu peptide TVPLPSETDGYVAPL (position 1117)]	-0.0025 ratio to standard peptide
